The test system of series [1] is GST-IkBα protein [GST: P08515].

Experimental findings from US20030171557 are described below.

Sequence of GST-IkBα protein [GST: P08515] (P08515 whole entry, looked up): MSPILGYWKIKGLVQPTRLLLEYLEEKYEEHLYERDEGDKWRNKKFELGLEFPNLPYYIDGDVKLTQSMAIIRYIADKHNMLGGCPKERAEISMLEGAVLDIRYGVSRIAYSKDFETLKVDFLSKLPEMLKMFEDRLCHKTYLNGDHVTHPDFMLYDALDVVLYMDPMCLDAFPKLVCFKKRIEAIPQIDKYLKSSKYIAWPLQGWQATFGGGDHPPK

Turning to “GST fusion protein with mutant VRK1 protein (Lys 71 replaced by Trp)”, the “kinase assay, phosphorylation of substrate ([γ-32P]-ATP, SDS-PAGE, 10 mM Mg)” value (in series [1]; in the series on casein (Sigma)) was “no phosphorylation was observed in reactions with mutant VRK1 carrying mutation in the predicted ATP binding site” in each case.
